{"source": "the nanobody polyreactivity screen of Harvey et al. (2022)"}
{"test": "yeast display, Sf9 membrane polyspecificity reagent, FACS + sequencing; frameworks hold sequencing errors", "in_short": "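A synthetic nanobody library was expressed on Saccharomyces cerevisiae BJ5465 by galactose induction for 36–48 hours. The library was stained for 1 hour at 4 °C with 10% biotinylated, detergent-solubilized Sf9 membrane reagent and enriched with streptavidin microbeads before FACS. Low and high (top ~1%) gates were set on anti-HA fluorescence for expression and streptavidin fluorescence for reagent binding, and each polyreactivity label reflects the gate of origin.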"}
{"sequence": "QVQLVESGGGIVQAGGSLRLSCAASGRIIRYYTMGWYRQAPGKERELVAAIRQRGGSTYYADSVKGRFTISRDNAKNTVYLHMNSLKREDTAVYYCNAVRRTTYDYWGQGTQVTVSS", "polyreactivity (PSR sort gate)": "high polyreactivity"}
{"sequence": "QVQLVESGGGLVQAGGSLRLSCAASGITIARYAMGWYRQAPGKERELVAAITRSGGRTYYADSVKGRFTISRDNAKITVYLQMKSLKPEDTAVYYCYNVTRGKNHGTKYDYWGQGTQVTVSS", "polyreactivity (PSR sort gate)": "high polyreactivity"}
{"sequence": "QVQLVESGGGLVQAGGSLRLSCAASGRIFRGNTMGWYRQAPGKERELVAAITRGGSTSYADSVKGRFTISRDNAKNTVYLQMNSLKPEDTAVFYCATRTHGEGTRRDSWGQGTQVTVSS", "polyreactivity (PSR sort gate)": "low polyreactivity"}
{"sequence": "QVQLVESGGCLVQAGGSLRLSSAASGFIIPGNPMCWYRQAPAKERDLVAAITSGGSTKYADSVKGRITISRDNAKNTDYLQMNSLKPEDTAVYYCAARGFPPGDEWHPYDYWGQGTQVTVSS", "polyreactivity (PSR sort gate)": "low polyreactivity"}
{"sequence": "QVQLVESAGGLVQAGGSLRLSCAAYGRIFAYNAMGWYRQSPGKERELVAAITWSGDSTYYADSVKGRFTISRDNAKNTVYLQMNSLKPEDTAVYYCATDPLFITSTRWKYDYWGQGTQVTVSS", "polyreactivity (PSR sort gate)": "low polyreactivity"}
{"sequence": "QVKLVESGGGLVQAGGRLRLTCAASGSTISGYAMGWYRQAPGKERQLVATITGGGRTYYADSVKGRFTISRDNAKNTVYLQMNSLKPEDSAVYYFAVRGYHQYKYGYWGQGTQVTVSS", "polyreactivity (PSR sort gate)": "high polyreactivity"}
{"sequence": "QVQLVESCGGLVQAGGSLRLSCAASGSIFGTNAMGWYRQAPGKERELVASITRGGSTNYADSVKGRFTISRDNAKNTVYLQMNSLTPEDTAVYYCNAQGHWRWWGYDYWGQGTQVTVSS", "polyreactivity (PSR sort gate)": "low polyreactivity"}
{"sequence": "QVQLVESGGVLVQAGGSLRLSCAAAGRIFIWNAMGWYRQAPGKERELDAAISSGGTYYADSVKGRFTISRDNAKNTVYLQMNSLKPEDTAVYYCAADWEVYVSEFVYWGQGTQVTVSS", "polyreactivity (PSR sort gate)": "low polyreactivity"}
{"sequence": "QVQLVESGGGLVPARGSLRLSCAASGSTFSDNAMGWYRQAPGKERELVAAINWSVGSTYYADSVKGRFTISRDNAKNTVYLQMNRRKPEDTAVYYCAGGYSLYESLVIFDYWGQGTQVTVSS", "polyreactivity (PSR sort gate)": "low polyreactivity"}
{"sequence": "QVQLVESGGGLVQAGGSLRLSCAASGSTFYAYTMGWYRKAPGKERELVAGISRRGGTTYYADSVKGRFTISRDNAKNTVYLQMNSLKPEYTAVYYCAADKTKPQASEGYYAYYYWGQGTQVTVSS", "polyreactivity (PSR sort gate)": "low polyreactivity"}
{"sequence": "QVQLVESGGGLVQAGGSLRLSCAASGLIFVINAMGCYRQAPGKERELVATISSGVSTNNADSVKGRFTISRDNAKNTVYLQMYSLKPEDTAVYYCNKGQTVSRGYRLYERFVYWGQGTQVTVSS", "polyreactivity (PSR sort gate)": "low polyreactivity"}
{"sequence": "QVQLVESGGGLVQAGGSLRLSCAASGSTFVGYVMGWYRQAPGKERELVAAITRSGTSTYYADSVKGRFTISRDNAKNTVYLQMNSLKPEDTAVYYCALRYVSSDYYYWGQGTQVTVSS", "polyreactivity (PSR sort gate)": "low polyreactivity"}
{"sequence": "QVQLVESGGGLVQAGGSLRLSCAASGLTFGIYDMGWYRQAPGKERELVAGIRWSGGDSTYYADSVKGRFTNSRDNAKNTVYLQMNSLKPEDTAVYYCAARLYRWGGGLSRDKHGYWGQGTQVTVSS", "polyreactivity (PSR sort gate)": "low polyreactivity"}
{"sequence": "QVQLVESGGGLVQAGGSLRLSCAASGSTIDGYAMGWYRQAPRKERELVAAITFDGSSTYYADSVKGRFTISRDNAKNTVYLQMNSLKPEVTAVYYCAAASSYWVLWDDYWGQGTQVTVSS", "polyreactivity (PSR sort gate)": "low polyreactivity"}
{"sequence": "QVQHVESGGGLLQAGGSLRLSCAASGFTFNANAMGWYRQAPGKERELVAVITRSGGRTYYADSVKGRFTISRDNAKNTVYLQMNSLKPEDTAVYYCNAKGWTRPPCYDYWGQGTQVTVSS", "polyreactivity (PSR sort gate)": "high polyreactivity"}
{"sequence": "QVQLVESGGGLVQAGGSLRLSCAASGRIIYDKAMGWYRQAPGKERELVAAISRSGRTYYADSVKGRFTISRDNAKNTVYLQMNSLKPEDSAVYYCNARTLTVLEFDYWGQGTQVTVSS", "polyreactivity (PSR sort gate)": "low polyreactivity"}
{"sequence": "QVQLVESGGGLVQAGGSLRLSCAASGSTFLGNAMGWYSQAPGKERELVASISWSGGSTSYADSVKGRFTISRDIAKNTVYLLMNSLKPEDTAVYYCAVDWRYTGRTYYGMESWGQGTQVTVSS", "polyreactivity (PSR sort gate)": "low polyreactivity"}
{"sequence": "QVQLEESGGGLVQAGGSLRLSCAASGRIFAGYAMGWYRQEPGKERELVAAINGSGADTYYADSVKGRFTISRDNAKNTVYLQMNSLKPEDTAVYYCAASPGSQYTGYDYWGQGTQVTVSS", "polyreactivity (PSR sort gate)": "low polyreactivity"}
{"sequence": "QVQLVESGGGLVQAGGSLRLSCAASGFIFGRYTMGWSRQAPGKEGELVAAISGSDVSTYYADSVKGRFTISRDNAKNTVYLQLNSVKPEDTAVYYCAADAPWAYYEYDYWGQGTQVTVSS", "polyreactivity (PSR sort gate)": "low polyreactivity"}
{"sequence": "QVQLVESGGGLVQAGGSLRLSCAASGSTFRYYVMGWYSQSPGKERELVAGISYRGGTTYYADSVKGRFTISRDNAKNTVYLQMYILKPEDTAVYYCNAETAAAQASYDRLYVLLDYWGQGTQVTVSS", "polyreactivity (PSR sort gate)": "low polyreactivity"}
{"sequence": "QVQLVESGGGLVQAGGSLRLSCAASGGIFTKNAMGWYRQAPGKERELVAGISRTGGNTYYADSVKGRFTISRDNAKNTVYLQMNSLKPEDTAVYYCHWAKWYRYGGYRSRYDYWGQGTQVTVSS", "polyreactivity (PSR sort gate)": "low polyreactivity"}
{"sequence": "QVQLVESGGGLVQAGGSLRLSCPASGTIFYVNAMGLYRQEPGKETEFVAAITGGASTNFADSVKGRFTSSRDNAKNTVYLQMNSLKPEDTAVYYCAVDPVGHATRVWTYHYDYWGQGTQVTVSS", "polyreactivity (PSR sort gate)": "low polyreactivity"}
{"sequence": "QVQLVESGGGLVQAGGSLRLSCAASGQTFPFYTKGWYRQAPGKERELVGAISRRGGSTYYADSVKGRFTISRDNAKYTVYLQMKSLKPEDTAVYYCAADKYSWYDYWGQGTQVTVSS", "polyreactivity (PSR sort gate)": "low polyreactivity"}
{"sequence": "QVQLVESGGGLVQAGGSLRLSCAASGSIFRYNAMGWYRQAPGKERELVAAIDWSGGTYYADSVKGRFTISRDNAKNTVYLQMNSLKPEDTAVYYCNARGSTYSSYWGYDYWGQGTQVTVSS", "polyreactivity (PSR sort gate)": "low polyreactivity"}
{"sequence": "QVQLVESGGGLVQAGGSLRLSCAASGSIFWNNAMGWYRQAPGKERELVAGISGGSTNYADSVKGRFTISRDNAKNTVYLQMNSLKPEDTAVYYCATERQWESRFEAYDYWGQGTQVTVSS", "polyreactivity (PSR sort gate)": "low polyreactivity"}
{"sequence": "QDQLVESGGGLVQAGGSLRLICAASGLTFKVYAMGWYRQAPGKERELVAAISWSGGSTYYADSVKGRFTISRDNAKNTVYLQMNSLKPEDTAVYYCAVEASYYVVFFPYEYWGQGTQVTVSS", "polyreactivity (PSR sort gate)": "low polyreactivity"}
{"sequence": "QVQLVESGGGLVQAGGSLRLSCAASGFTFTYNAMGWYRQEPGKERELVAAITANGGGTNYADSVKGRFTISRDNAKNTVYLQMNSLKPEDTAVYYCAATIVVAVFESLGFYWYTEENYWGQGTLVTVSS", "polyreactivity (PSR sort gate)": "low polyreactivity"}
{"sequence": "QVQLVESGGGLVQGGGSLRLRCAASGSILLYYTMGWYRPAPGKERELVAAISWSGVSTYYADSVKGRFTISRDNPMNTVYLQMISLKPVDNEVYYCGTRSVQGSYFAGYCYWGQGPQVTVSS", "polyreactivity (PSR sort gate)": "low polyreactivity"}
{"sequence": "QVQLVESGGGLVQAGGSLRLSCAASGIIFSRYAMGWYRQAPGKERELVAAISTSGGRTFYADSVKGRFTISRDYAKNTVYLQMNSLKPEDTAVYYCNAEIQRGPGRGGYNYWGQGTQVTVSS", "polyreactivity (PSR sort gate)": "high polyreactivity"}
{"sequence": "QVQLVESGGGLVQAGGSLRLSCAASGFTFPGYAMGWYRQAPGKERELVAAISSSGGSTYYADSVKGRFTISRDNAKNTVYLQMNSLKPEDTAVYYCAARHGQSWQWLEYDYWGQGTQVTVSS", "polyreactivity (PSR sort gate)": "low polyreactivity"}
